B1: Rho-related GTP-binding protein RhoD (Homo sapiens), O00212 (parent)
chain: MTAAQAAGEEAPPGVRSVKVVLVGDGGCGKTSLLMVFADGAFPESYTPTVFERYMVNLQVKGKPVHLHIWDTAGQDDYDRLRPLFYPDASVLLLCFDVTSPNSFDNIFNRWYPEVNHFCKKVPIIVVGCKTDLRKDKSLVNKLRRNGLEPVTYHRGQEMARSVGAVAYLECSARLHDNVHAVFQEAAEVALSSRGRNFWRRITQGFCVVT

Variants of: B1
Conditions: with plxb1_human PLXNB1, O43157
plxb1_human PLXNB1, O43157, sequence (O43157 whole entry): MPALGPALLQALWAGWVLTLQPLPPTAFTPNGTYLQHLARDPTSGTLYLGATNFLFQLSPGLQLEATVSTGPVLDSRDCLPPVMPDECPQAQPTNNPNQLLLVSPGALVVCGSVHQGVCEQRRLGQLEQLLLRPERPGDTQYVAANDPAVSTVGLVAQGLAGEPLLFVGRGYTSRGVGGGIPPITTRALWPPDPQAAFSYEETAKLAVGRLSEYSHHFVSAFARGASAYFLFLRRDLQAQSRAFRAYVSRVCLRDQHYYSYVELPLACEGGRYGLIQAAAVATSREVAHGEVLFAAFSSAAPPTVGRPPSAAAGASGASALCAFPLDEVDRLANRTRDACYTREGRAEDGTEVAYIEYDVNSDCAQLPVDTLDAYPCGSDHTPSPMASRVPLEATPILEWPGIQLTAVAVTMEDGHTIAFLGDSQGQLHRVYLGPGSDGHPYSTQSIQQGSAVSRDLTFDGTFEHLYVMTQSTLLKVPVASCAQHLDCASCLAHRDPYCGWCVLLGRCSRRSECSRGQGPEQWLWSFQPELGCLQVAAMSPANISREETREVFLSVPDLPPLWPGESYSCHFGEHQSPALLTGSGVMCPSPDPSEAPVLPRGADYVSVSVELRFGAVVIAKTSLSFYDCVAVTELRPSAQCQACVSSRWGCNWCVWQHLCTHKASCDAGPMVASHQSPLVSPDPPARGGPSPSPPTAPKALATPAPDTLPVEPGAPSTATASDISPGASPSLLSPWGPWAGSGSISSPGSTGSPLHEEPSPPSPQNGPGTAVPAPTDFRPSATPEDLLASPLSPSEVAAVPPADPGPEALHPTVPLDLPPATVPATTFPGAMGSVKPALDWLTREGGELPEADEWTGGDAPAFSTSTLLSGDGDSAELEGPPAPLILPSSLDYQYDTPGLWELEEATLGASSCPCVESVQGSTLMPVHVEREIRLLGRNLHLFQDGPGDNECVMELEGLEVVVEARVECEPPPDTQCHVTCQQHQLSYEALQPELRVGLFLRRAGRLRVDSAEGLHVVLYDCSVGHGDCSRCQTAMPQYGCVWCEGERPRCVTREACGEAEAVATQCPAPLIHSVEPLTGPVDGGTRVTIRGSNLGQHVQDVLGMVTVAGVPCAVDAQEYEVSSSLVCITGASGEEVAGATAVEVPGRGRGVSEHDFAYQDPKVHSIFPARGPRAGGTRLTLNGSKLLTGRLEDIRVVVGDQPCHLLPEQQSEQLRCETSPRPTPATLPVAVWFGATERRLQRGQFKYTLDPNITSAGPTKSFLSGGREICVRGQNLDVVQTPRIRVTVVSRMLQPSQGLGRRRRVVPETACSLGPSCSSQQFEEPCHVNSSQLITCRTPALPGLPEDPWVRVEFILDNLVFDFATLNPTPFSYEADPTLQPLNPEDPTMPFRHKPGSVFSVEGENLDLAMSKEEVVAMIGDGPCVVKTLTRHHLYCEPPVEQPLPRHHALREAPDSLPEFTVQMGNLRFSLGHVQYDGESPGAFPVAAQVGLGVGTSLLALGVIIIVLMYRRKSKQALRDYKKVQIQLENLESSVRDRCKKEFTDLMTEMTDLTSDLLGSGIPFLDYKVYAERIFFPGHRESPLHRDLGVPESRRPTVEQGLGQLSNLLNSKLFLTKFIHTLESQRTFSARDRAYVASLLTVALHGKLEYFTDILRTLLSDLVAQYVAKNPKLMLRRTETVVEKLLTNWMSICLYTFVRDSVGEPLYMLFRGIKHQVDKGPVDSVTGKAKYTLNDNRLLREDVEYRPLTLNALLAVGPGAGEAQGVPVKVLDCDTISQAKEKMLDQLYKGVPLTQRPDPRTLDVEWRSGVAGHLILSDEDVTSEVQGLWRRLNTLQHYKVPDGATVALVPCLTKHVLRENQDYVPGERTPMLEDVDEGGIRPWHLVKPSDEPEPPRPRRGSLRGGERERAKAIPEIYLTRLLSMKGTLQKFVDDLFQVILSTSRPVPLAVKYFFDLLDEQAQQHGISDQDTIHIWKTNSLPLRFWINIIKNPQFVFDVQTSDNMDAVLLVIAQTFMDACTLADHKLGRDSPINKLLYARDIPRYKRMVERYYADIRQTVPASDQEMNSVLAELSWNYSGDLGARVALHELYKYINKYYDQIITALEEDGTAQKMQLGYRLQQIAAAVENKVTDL

effect of a mutation on the interaction	Variant
disrupting interaction	MTAAQAAGEEAPPGVRSVKVVLVGDGGCGKKSLLMVFADGAFPESYTPTVFERYMVNLQVKGKPVHLHIWDTAGQDDYDRLRPLFYPDASVLLLCFDVTSPNSFDNIFNRWYPEVNHFCKKVPIIVVGCKTDLRKDKSLVNKLRRNGLEPVTYHRGQEMARSVGAVAYLECSARLHDNVHAVFQEAAEVALSSRGRNFWRRITQGFCVVT [T31K]

— IntAct's records for PubMed 22404908
